Data reported in patent publication US20210388082A1 (NEWBIO THERAPEUTICS, published 2021).

T1: CD79b on the surface of human lymphoma cell lines (human, UniProt P40259 29-229)
T1 sequence (looked up): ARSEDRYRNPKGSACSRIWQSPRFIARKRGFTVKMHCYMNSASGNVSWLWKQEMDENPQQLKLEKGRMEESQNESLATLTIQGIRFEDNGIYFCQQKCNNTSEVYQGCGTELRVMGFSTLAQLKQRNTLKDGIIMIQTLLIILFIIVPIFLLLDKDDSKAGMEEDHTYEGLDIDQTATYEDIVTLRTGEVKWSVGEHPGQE

T2: recombinant human CD79b extracellular domain protein (human, UniProt P40259 29-159)
T2 construct: Bought protein; also called CD79b ECD; human CD79b-ECD
T2 sequence: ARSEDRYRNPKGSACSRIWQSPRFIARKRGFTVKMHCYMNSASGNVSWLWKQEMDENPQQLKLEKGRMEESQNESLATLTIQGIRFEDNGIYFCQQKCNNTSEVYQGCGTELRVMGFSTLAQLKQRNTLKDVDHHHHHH


Columns and labels:
[1] = molecular target: T1, CD79b on the surface of human lymphoma …; assay: cell-based or functional assay
[2] = molecular target: T1, CD79b on the surface of human lymphoma …; assay: cell-based or functional assay; remark: listed apart in the source
[3] = molecular target: T1, CD79b on the surface of human lymphoma …; assay: cell-based or functional assay; remark: listed apart in the source
[4] = molecular target: T2, recombinant human CD79b extracellular …; assay: ELISA, plate coated with human CD79b-ECD
Experimental: (§1) The experimental procedure was as follows: 96-well plates (Corning, CAT #9018) were coated with 100 μL/well of antigen (human CD79b-ECD, novoprotein, CA29) at 1 μg/mL in PBS (10 mM phosphate, 138 mM NaCl, pH 7.2) at 4° C. overnight, and then blocked with 250 ul/well of blocking solution (PBS+1% BSA (Sangon, CAT #A0332)) for one to three hours at 25° C. Plates were washed 3 times with a washing solution (PBS+0.05% Tween-20 (Sangon, CAT #TB0560)), and then incubated with 100 μL of anti-CD79b antibody in serial dilutions in blocking solution in duplicate wells at 25° C. for 2 h. Plates were washed 3 times with washing solution and then incubated with 100 μL of 1:10,000 the secondary antibody (anti-mouse IgG (Fc)-HRP, Sigma, CAT #A00168 or anti-human IgG F(ab′)2-HRP, Sigma, CAT #A0293) at 25° C. for 1 h. Plates were washed 3 times with washing solution, and then 100 μL of TMB (Sangon, CAT #TB0954) was added to each well and incubated at 25° C. until color developed (approximately 15 min). Reactions were stopped by addition of 100 μl/well stop solution (1N H2SO4). OD450/630 nm was read on plate reader in 10 minutes.

[5] = molecular target: T2, recombinant human CD79b extracellular …; assay: ELISA, plate coated with human CD79b-ECD; remark: listed apart in the source
Experimental: as §1
The in vitro binding activity of the anti-CD79b humanized antibody to the extracellular domain of human CD79b was examined by ELISA as described in Section 1 of the Materials and Methods section.

[6] = molecular target: T2, recombinant human CD79b extracellular …; assay: indirect ELISA, plate coated with CD79b antigen
Experimental: An ELISA anti-antibody was added to bind with the antibody or ADC antibody bound to the solid phase antigen, and unbound anti-antibody was removed by washing. Substrate solution was added, and then the optical density (OD) value at 450 nm/630 nm was read with a microplate reader T, based on which a curve was plotted, and the EC₅₀ was calculated.

[7] = molecular target: T2, recombinant human CD79b extracellular …; assay: SPR (Biacore T200), antibody on CM5 chip, CD79b ECD as analyte, 25 C
Experimental: The assay was performed on a Biacore T200 (GE) machine, and the antibody to be tested was diluted to 10 ug/ml with HBS-EP (GE, BR100826) buffer according to the instruction of Amine-Coupling Kit (GE, BR-1000-50). The antibody to be tested was immobilized on a CM5 chip (GE, BR-1006-68) at a fixing time of 300 sec and a flow rate of 10 ul/min. Different concentrations (0.25 nm, 0.5 nm, 1 nm, 2 nm, 4 nm, 8 (×2) nm, 16 nm) of the recombinant CD79b extracellular domain protein diluted with HBS buffer gradient was subjected to capture reaction by Kinetics program, with the binding time of the antigen-antibody set to 300 seconds, dissociation time set to 900 seconds, flow rate of the antigenic protein to 30 ul/min. The dissociation curves were fitted to calculate the KD values of the different antibodies. The above experiments were all carried out at 25° C.
The affinity of the antibody after humanization was tested by the method described in Section 4 of the “Materials and Methods” section.

| Binder | EC50 [5] [µg/mL] | Kd [7] [nM] | koff [7] [s⁻¹] | kon [7] [M⁻¹ s⁻¹] | further results |
| --- | --- | --- | --- | --- | --- |
| recombinant chimeric antibody 104E1 conjugated to BMP-vcMMAE (other, antibody conjugated to BMP-vcMMAE (linker-drug 1); positions not given) VH: QVQLQQSGSELARPGASVKLSCKTSGNTFTSYGINWVKQRTGQGLEWIGEIFPRSGNIYYNEKFKGKATLTADKSSSTAYMELRSLTSEDSAVYFCAKGGTGDFDYWGQGTTLTVSS VL: DVLMTQTPLSLPVSLGDQASISCRSSQNIVHSDGNTYLEWYLQKPGQSPKLLIYKVSFRLSGVPDRFSGSGSGTDFTLKIRRVEAEDLGTYYCFQGSHVPWTFGGGTKLEIK | – | – | – | – | Inhibitory activity on lymphoma cell proliferation IC50, BJAB [1]: 0.0104 µg/mL; Inhibitory activity on lymphoma cell proliferation IC50, DoHH2 [1]: 0.00575 µg/mL; Inhibitory activity on lymphoma cell proliferation IC50, Granta-519 [1]: 0.0208 µg/mL; Inhibitory activity on lymphoma cell proliferation IC50, Ramos [1]: 0.00602 µg/mL; Inhibitory activity on lymphoma cell proliferation IC50, SU-DHL-4 [1]: 0.0119 µg/mL; Inhibitory activity on lymphoma cell proliferation IC50, U-698-M [1]: 0.00952 µg/mL; Inhibitory activity on lymphoma cell proliferation IC50, WSU-DLCL2 [1]: 0.0182 µg/mL; Inhibitory effect on the lymphoma cell proliferation IC50, BJAB [2]: 0.00881 µg/mL; Inhibitory effect on the lymphoma cell proliferation IC50, DoHH2 [2]: 0.00426 µg/mL; Inhibitory effect on the lymphoma cell proliferation IC50, Granta-519 [2]: 0.0296 µg/mL; Inhibitory effect on the lymphoma cell proliferation IC50, Ramos [2]: 0.00442 µg/mL; Inhibitory effect on the lymphoma cell proliferation IC50, SU_DHL-4 [2]: 0.00946 µg/mL; Inhibitory effect on the lymphoma cell proliferation IC50, U-698-M [2]: 0.0159 µg/mL; Inhibitory effect on the lymphoma cell proliferation IC50, WSU-DLCL2 [2]: 0.0168 µg/mL |
| murine anti-CD79b monoclonal antibody 104E1 (antibody, V domains shown, Mouse hybridoma antibody, tested as supernatant; also called murine antibody 104E1) VH: QVQLQQSGSELARPGASVKLSCKTSGNTFTSYGINWVKQRTGQGLEWIGEIFPRSGNIYYNEKFKGKATLTADKSSSTAYMELRSLTSEDSAVYFCAKGGTGDFDYWGQGTTLTVSS VL: DVLMTQTPLSLPVSLGDQASISCRSSQNIVHSDGNTYLEWYLQKPGQSPKLLIYKVSFRLSGVPDRFSGSGSGTDFTLKIRRVEAEDLGTYYCFQGSHVPWTFGGGTKLEIK | – | – | – | – | IC50 against BJAB (secondary ADC assay with HB58-ADC) [3]: 0.0093 µg/mL; EC50 [4]: 0.0149 µg/mL |
| Humanized antibody AS11259 (antibody, human IgG1, kappa, Humanized IgG1 / kappa; also called naked antibody AS11259) heavy: not shown light: DVVMTQSPLSLPVTLGQPASISCRSSQNIVHSDGNTYLEWYQQRPGQSPRLLIYKVSFRLSGVPDRFSGSGSGTDFTLKISRVEAEDVGVYYCFQGSHVPWTFGGGTKVEIKRTVAAPSVFIFPPSDEQLKSGTASVVCLLNNFYPREAKVQWKVDNALQSGNSQESVTEQDSKDSTYSLSSTLTLSKADYEKHKVYACEVTHQGLSSPVTKSFNRGEC | 0.0583 | 0.0216 | 3.63e-05 | 1.68e+06 | EC50 [6]: 0.0178 µg/mL |
| Humanized antibody AS11161 (antibody, human IgG1, kappa, V domains shown, Humanized IgG1 / kappa) VH: QVQLVQSGAEVKKPGSSVKVSCKTSGNTFTSYGINWVRQAPGQGLEWMGEIFPRSGNIYYNEKFKGKVTITADKSTSTAYMELSSLRSEDTAVYYCAKGGTGDFDYWGQGTLVTVSS VL: DVVMTQSPLSLPVTLGQPASISCRSSQNIVHSDGNTYLEWYQQRPGQSPRLLIYKVSFRLSGVPDRFSGSGSGTDFTLKISRVEAEDVGVYYCFQGSHVPWTFGGGTKVEIKR | 0.0431 | 0.014 | 2.84e-05 | 2.02e+06 | – |
| Humanized antibody AS11164 (antibody, human IgG1, kappa, V domains shown, Humanized IgG1 / kappa) VH: QVQLVQSGAEVKKPGSSVKVSCKTSGNTFTSYGINWVRQAPGQGLEWMGEIFPRSGNIYYNEKFKGKVTITADKSTSTAYMELSSLRSEDTAVYYCAKGGTGDFDYWGQGTLVTVSS VL: DVLMTQSPLSLPVTLGQPASISCRSSQNIVHSDGNTYLEWYQQRPGQSPKLLIYKVSFRLSGVPDRFSGSGSGTDFTLKISRVEAEDVGVYYCFQGSHVPWTFGGGTKVEIKR | 0.064 | 0.0128 | 2.44e-05 | 1.91e+06 | – |
| Humanized antibody AS11252 (antibody, human IgG1, kappa, Humanized IgG1 / kappa) heavy: not shown light: DVVMTQSPLSLPVTLGQPASISCRSSQNIVHSDGNTYLEWYQQRPGQSPRLLIYKVSFRLSGVPDRFSGSGSGTDFTLKISRVEAEDVGVYYCFQGSHVPWTFGGGTKVEIKRTVAAPSVFIFPPSDEQLKSGTASVVCLLNNFYPREAKVQWKVDNALQSGNSQESVTEQDSKDSTYSLSSTLTLSKADYEKHKVYACEVTHQGLSSPVTKSFNRGEC | 0.0499 | 0.0285 | 4.22e-05 | 1.48e+06 | – |
| Humanized antibody AS11254 (antibody, human IgG1, kappa, V domains shown, Humanized IgG1 / kappa) VH: QVQLVQSGAEVKKPGASVKVSCKTSGNTFTSYGINWVKQAPGQGLEWMGEIFPRSGNIYYNEKFKGRVTITADKSTSTAYMELSSLRSEDTAVYYCAKGGTGDFDYWGQGTLVTVSS VL: DVVMTQSPLSLPVTLGQPASISCRSSQNIVHSDGNTYLEWYQQRPGQSPRLLIYKVSFRLSGVPDRFSGSGSGTDFTLKISRVEAEDVGVYYCFQGSHVPWTFGGGTKVEIKR | 0.0501 | 0.0187 | 2.87e-05 | 1.53e+06 | – |
| recombinant human-mouse chimeric antibody 104E1 (antibody, V domains shown, also called chimeric 104E1) VH: QVQLQQSGSELARPGASVKLSCKTSGNTFTSYGINWVKQRTGQGLEWIGEIFPRSGNIYYNEKFKGKATLTADKSSSTAYMELRSLTSEDSAVYFCAKGGTGDFDYWGQGTTLTVSS VL: DVLMTQTPLSLPVSLGDQASISCRSSQNIVHSDGNTYLEWYLQKPGQSPKLLIYKVSFRLSGVPDRFSGSGSGTDFTLKIRRVEAEDLGTYYCFQGSHVPWTFGGGTKLEIK | – | 0.0341 | 5.52e-05 | 1.62e+06 | – |
